In the supplement of paper PMC12338614:
± gives the uncertainty stated by the source.

B1: library; numbered along this chain (parent)
chain: MEVVDPQQLGMFTEGELMSVGMDTFIHRIDSTEVIYQPRRKRAKLIGKYLMGDLLGEGSYGKVKEVLDSETLCRRAVKILKKKKLRRIPNGEANVKKEIQLLRRLRHKNVIQLVDVLYNEEKQKMYMVMEYCVCGMQEMLDSVPEKRFPVCQAHGYFCQLIDGLEYLHSQGIVHKDIKPGNLLLTTGGTLKISDLGVAEALHPFAADDTCRTSQGSPAFQPPEIANGLDTFSGFKVDIWSAGVTLYNITTGLYPFEGDNIYKLFENIGKGSYAIPGDCGPPLSDLLKGMLEYEPAKRFSIRQIRQHSWFRKKHPPAEAPVPIPPSPDTKDRWRSMTVVPYLEDLHGADEDEDLFDIEDDIIYTQDFTVPGQVPEEEASHNGQRRGLPKAVCMNGTEAAQLSTKSRAEGRAPNPARKACSASSKIRRLSACKQQ

Variants of: B1
Test: STK11 functional score (HeLa growth suppression), rescaled enrichment; synonymous median = 1, nonsense median = 0 (normalised score)
Details: with HeLa; variant type: missense
Method in brief: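 Codon-randomised (POPCode) libraries of codon-optimised STK11 were integrated by Bxb1 at an AAVS1 landing pad in HeLa, in three regions each transfected three times. Integrants (BFP-negative, mCherry-positive) were FACS-sorted 4–5 days after electroporation and grown about two weeks; tiled gDNA amplicons were sequenced on NextSeq (~2 million reads per tile). The functional score is the wild-type-corrected post/pre-selection log ratio, rescaled to synonymous and nonsense medians, merged over codons and replicate transfections, with bootstrapped error.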

Variant	STK11 functional score
N119E	0.994 ± 0.093
N119W	1.58 ± 0.17
N119A	1.44 ± 0.23
N380L	0.908 ± 0.27
R75G	1.56 ± 0.46
S419F	1.46 ± 0.18
S419A	1.37 ± 0.38
A398L	1.16 ± 0.15
M136H	-0.214 ± 0.081
E199Y	1.04 ± 0.34
E199I	0.977 ± 0.097
P217S	0.334 ± 0.13
P217C	0.451 ± 0.36
G394V	1.29 ± 0.18
A198G	1.28 ± 0.11
K108N	1.29 ± 0.46
K108V	0.939 ± 0.085
V116A	0.197 ± 0.13
V116G	0.415 ± 0.092
P387D	1.56 ± 0.24
P387K	1 ± 0.31

Variant	STK11 functional score
S401C	1.05 ± 0.36
D350G	1.29 ± 0.28
Q432W	1.59 ± 0.34
Q432G	1.61 ± 0.27
F264R	0.806 ± 0.25
F264S	0.597 ± 0.21
N94G	0.953 ± 0.18
I361W	1.62 ± 0.16
I361Y	0.312 ± 0.54
I361D	1.5 ± 0.17
G408F	1.24 ± 0.52
G408R	1.59 ± 0.16
A406I	1.6 ± 0.32
V77I	1.4 ± 0.13
V77L	1.04 ± 0.22
K81S	0.932 ± 0.1
A218Q	1.25 ± 0.29
A218N	1.35 ± 0.28
E33V	0.509 ± 0.087
K403I	1.04 ± 0.46
L245F	0.00828 ± 0.095

Variant	STK11 functional score
L245W	-0.0585 ± 0.093
L184N	0.425 ± 0.35
E223C	1.03 ± 0.53
K64V	1.38 ± 0.19
F231D	1.56 ± 0.39
C73Y	0.412 ± 0.097
E120I	1.55 ± 0.18
E120R	0.779 ± 0.085
D229S	1.01 ± 0.28
D53S	1.51 ± 0.24
Y49P	0.101 ± 0.089
D284H	1.14 ± 0.31
Q170T	0.156 ± 0.35
G268L	1.56 ± 0.23
V4L	0.909 ± 0.33
E57M	1.26 ± 0.17
E57H	1.53 ± 0.34
E57F	0.821 ± 0.094
K84C	1.68 ± 0.42
K84W	1.14 ± 0.17
K84N	0.967 ± 0.3

Variant	STK11 functional score
Y292G	1.45 ± 0.21
L80N	0.951 ± 0.37
G188C	0.212 ± 0.11
A205V	1.09 ± 0.32
F204D	1.09 ± 0.12
F204A	1.03 ± 0.52
S232V	0.841 ± 0.24
I303V	1.43 ± 0.25
L45F	1.1 ± 0.26
L45A	0.863 ± 0.17
G346E	1.35 ± 0.74
D330C	1.33 ± 0.33
D330H	0.985 ± 0.41
G215A	1.15 ± 0.2
L182E	-0.122 ± 0.31
L182C	1.17 ± 0.16
P323F	1.36 ± 0.33
G233D	1.56 ± 0.24
V63W	0.213 ± 0.095
A318S	1.33 ± 0.28
I274R	0.816 ± 0.21
